Reference: patent US20140099312A1 (Regeneron, published 2014)

Target: hPCSK9(D374Y)-mmh (human, UniProt Q8NBP7 31-692)
Assay: cell-based or functional assay

B1: H1M300N (antibody, V domains shown)
VH: EMQLVESGGGLVQPGGSLRLSCAASGFTFSSHWMKWVRQAPGKGLEWVANINQDGSEKYYVDSVKGRFTISRDNAKNSLFLQMNSLRAEDTAVYYCARDIVLMVYDMDYYYYGMDVWGQGTTVTVSS
VL: not shown
For B1, the “IC50, LDL uptake in HepG2 cells” value was 1.1 nM.
